Results as given in article PMC6620310, “A ubiquitin-like domain is required for stabilizing the N-terminal ATPase module of human SMCHD1” (Communications Biology, 2019).

B1: SMCHD1(24–580) wild-type [human] / itself (parent complex)
chain: GHRTVYLFDRREKESELGDRPLQVGERSDYAGFRACVCQTLGISPEEKFVITTTSRKEITCDNFDETVKDGVTLYLLQSVNQLLLTATKERIDFLPHYDTLVKSGMYEYYASEGQNPLPFALAELIDNSLSATSRNIGVRRIQIKLLFDETQGKPAVAVIDNGRGMTSKQLNNWAVYRLSKFTRQGDFESDHSGYVRPVPVPRSLNSDISYFGVGGKQAVFFVGQSARMISKPADSQDVHELVLSKEDFEKKEKNKEAIYSGYIRNRKPSDSVHITNDDERFLHHLIIEEKEKDSFTAVVITGVQPEHIQYLKNYFHLWTRQLAHIYHYYIHGPKGNEIRTSKEVEPFNNIDIEISMFEKGKVPKIVNLREIQDDMQTLYVNTAADSFEFKAHVEGDGVVEGIIRYHPFLYDRETYPDDPCFPSKLKDEDDEDDCFILEKAARGKRPIFECFWNGRLIPYTSVEDFDWCTPPKKRGLAPIECYNRISGALFTNDKFQVSTNKLTFMDLELKLKDKNTLFTRILNGQEQRMKIDREFALWLKDCHEKYDKQIKFTLFK

Variants of: B1
Test: native PAGE; parent: 0.098; read off a plot

| screen value | Variant |
| --- | --- |
| ~0.11 | GHRTVYLFDRREKESELGDRPLQVGERSDYAGFRACVCQTLGISPEEKFVITTTSRKEITCDNFDETVKDGVTLYLLQSVNQLLLTATKERIDFLPHYDTLVKSGMYEYYASEGQNPLPFALAELIDNSLSATSRNIGVRRIQIKLLFDETQGKPAVAVIDNGRGMTSKQLNNWAVYRLSKFTRQGDFESDHSGYVRPVPVPRSLNSDISYFGVGGKQAVFFVGQSARMISKPADSQDVHELVLSKEDFEKKEKNKEAIYSGYIRNRKPSDSVHITNDDERFLHHLIIEEKEKDSFTAVVITGVQPEHIQYLKNYFHLWTRQLAHIYHYYIHGPKGNEIRTSKEVEPFNNIDIEISMFEKGKVPKIVNLREIQDDMQTLYVNTAADSFEFKAHVEGDGVVEGIIRYHPFLYDRETYPDDPCFPSKLKDEDDEDDCFILEKAARGKRPIFECFWNGRLIPYTSVEDFDWCTPPKKRGLAPIECYNRISGALFTNDKFQVSKNKLTFMDLELKLKDKNTLFTRILNGQEQRMKIDREFALWLKDCHEKYDKQIKFTLFK [chain 1 T500K] |
| ~0.096 | GHRTVYLFDRREKESELGDRPLQVGERSDYAGFRACVCQTLGISPEEKFVITTTSRKEITCDNFDETVKDGVTLYLLQSVNQLLLTATKERIDFLPHYDTLVKSGMYEYYACEGQNPLPFALAELIDNSLSATSRNIGVRRIQIKLLFDETQGKPAVAVIDNGRGMTSKQLNNWAVYRLSKFTRQGDFESDHSGYVRPVPVPRSLNSDISYFGVGGKQAVFFVGQSARMISKPADSQDVHELVLSKEDFEKKEKNKEAIYSGYIRNRKPSDSVHITNDDERFLHHLIIEEKEKDSFTAVVITGVQPEHIQYLKNYFHLWTRQLAHIYHYYIHGPKGNEIRTSKEVEPFNNIDIEISMFEKGKVPKIVNLREIQDDMQTLYVNTAADSFEFKAHVEGDGVVEGIIRYHPFLYDRETYPDDPCFPSKLKDEDDEDDCFILEKAARGKRPIFECFWNGRLIPYTSVEDFDWCTPPKKRGLAPIECYNRISGALFTNDKFQVSTNKLTFMDLELKLKDKNTLFTRILNGQEQRMKIDREFALWLKDCHEKYDKQIKFTLFK [chain 1 S112C] |
| ~0.01 | GHRTVYLFDRREKESELGDRPLQVGERSDYAGFRACVCQTLGISPEEKFVITTTSRKEITCDNFDETVKDGVTLYLLQSVNQLLLTATKERIDFLPHYDTLVKSGMYEYYASEGQNPLPFALAELIDNSLSATSRNIGVRRIQIKLLFDETQGKPAVAVIDNGRGMTSKQLNNWAVYRLSKFTRQGDFESDHSGYVRPVPVPRSLNSDISYFGVGGKQAVFFVGQSARMISKPADSQDVHELVLSKEDFEKKEKNKEAIYSGYIRNRKPSDSVHITNDDERFLHHLIIEEKEKDSFTAVVITGVQPEHIQYLKNYFHLWTRQLAHIYHYYIHGPKGNEIRTSKEVEPFNNIDIEISMFEKGKVPKIVNLREIQDDMQTLYVNTAADSFEFKAHVEGDGVVEGIIRYHPFLYDRETYPDDPCFPSKLKDEDDEDDCFILEKAARGKRPIFECFWNERLIPYTSVEDFDWCTPPKKRGLAPIECYNRISGALFTNDKFQVSTNKLTFMDLELKLKDKNTLFTRILNGQEQRMKIDREFALWLKDCHEKYDKQIKFTLFK [chain 1 G455E] |
| ~0.008 | GHRTVYLFDRREKESELGDRPLQVGERSDYAGFRACVCQTLGISPEEKFVITTTSRKEITCDNFDETVKDGVTLYLLQSVNQLLLTATKERIDFLPHYDTLVKSGMYEYYASEGQNPLPFALAELIDNSLSATSRNIGVRRIQIKLLFDETQGKPAVAVIDNGRGMTSKQFNNWAVYRLSKFTRQGDFESDHSGYVRPVPVPRSLNSDISYFGVGGKQAVFFVGQSARMISKPADSQDVHELVLSKEDFEKKEKNKEAIYSGYIRNRKPSDSVHITNDDERFLHHLIIEEKEKDSFTAVVITGVQPEHIQYLKNYFHLWTRQLAHIYHYYIHGPKGNEIRTSKEVEPFNNIDIEISMFEKGKVPKIVNLREIQDDMQTLYVNTAADSFEFKAHVEGDGVVEGIIRYHPFLYDRETYPDDPCFPSKLKDEDDEDDCFILEKAARGKRPIFECFWNGRLIPYTSVEDFDWCTPPKKRGLAPIECYNRISGALFTNDKFQVSTNKLTFMDLELKLKDKNTLFTRILNGQEQRMKIDREFALWLKDCHEKYDKQIKFTLFK [chain 1 L171F] |
| ~0.12 | GHRTVYLFDRREKESELGDRPLQVGERSDYAGFRACVCQTLGISPEEKFVITTTSRKEITCDNFDETVKDGVTLYLLQSVNQLLLTATKERIDFLPHYDTLVKSGMYEYYASEGQNPLPFALAELIDNSLSATSRNIGVRRIQIKLLFDETQGKPAVAVIDNGRGMTSKQLNNWAVYRLSKFTRQGDFESDHSGYVRPVPVPRSLNSDISYFGVGGKQAVFFVGQSARMISKPADSQDVHELVLSKEDFEKKEKNKEAIYSGYIRNRKPSDSVHITNDDERFLHHLIIEEKEKDSFTAVVITGVQPEHIQYLKNYFHLWTRQLARIYHYYIHGPKGNEIRTSKEVEPFNNIDIEISMFEKGKVPKIVNLREIQDDMQTLYVNTAADSFEFKAHVEGDGVVEGIIRYHPFLYDRETYPDDPCFPSKLKDEDDEDDCFILEKAARGKRPIFECFWNGRLIPYTSVEDFDWCTPPKKRGLAPIECYNRISGALFTNDKFQVSTNKLTFMDLELKLKDKNTLFTRILNGQEQRMKIDREFALWLKDCHEKYDKQIKFTLFK [chain 1 H325R] |
| ~0.15 | GHRTVYLFDRREKESELGDRPLQVGERSDYAGFRACVCQTLGISPEEKFVITTTSRKEITCDNFDETVKDGVTLYLLQSVNQLLLTATKERIDFLPHYDTLVKSGMYEYYASEEQNPLPFALAELIDNSLSATSRNIGVRRIQIKLLFDETQGKPAVAVIDNGRGMTSKQLNNWAVYRLSKFTRQGDFESDHSGYVRPVPVPRSLNSDISYFGVGGKQAVFFVGQSARMISKPADSQDVHELVLSKEDFEKKEKNKEAIYSGYIRNRKPSDSVHITNDDERFLHHLIIEEKEKDSFTAVVITGVQPEHIQYLKNYFHLWTRQLAHIYHYYIHGPKGNEIRTSKEVEPFNNIDIEISMFEKGKVPKIVNLREIQDDMQTLYVNTAADSFEFKAHVEGDGVVEGIIRYHPFLYDRETYPDDPCFPSKLKDEDDEDDCFILEKAARGKRPIFECFWNGRLIPYTSVEDFDWCTPPKKRGLAPIECYNRISGALFTNDKFQVSTNKLTFMDLELKLKDKNTLFTRILNGQEQRMKIDREFALWLKDCHEKYDKQIKFTLFK [chain 1 G114E] |
| ~0.2 | GHRTVYLFDRREKESELGDRPLQVGERSDYAGFRACVCQTLGISPEEKFVITTTSRKEITCDNFDETVKDGVTLYLLQSVNQLLLTATKERIDFLPHYDTLVKSGMYEYYASEGQNPLPFALAELIDNSLSATSRNIGVRRIQIKLLFDETQGKPAVAVIDNGRGMTSKQLNNWAVYRLSKFTRQGDFESDHSGYVRPVPVPRSLNSDISYFGVGGKQAVFFVGQSARMISKPADSQDVHELVLSKEDFEKKEKNKEAIYSGYIRNRKPSDSVHITNDDERFLHHLIIEEKEKDSFTAVVITGVQPEHIQYLKNYFHLWTRQLAHIYHYYIHGPKGNEIRTSKEVEPFNNIDIEISMFEKGKVPKIVNLREIQDDMQTLYVNTAADSFEFKAHVEGDGVVEGIIRYHPFLYDRETYPDDPCFPSKLKDEDDEDDCFILEKAARGKRPIFGCFWNGRLIPYTSVEDFDWCTPPKKRGLAPIECYNRISGALFTNDKFQVSTNKLTFMDLELKLKDKNTLFTRILNGQEQRMKIDREFALWLKDCHEKYDKQIKFTLFK [chain 1 E450G] |
| ~0.12 | GHRTVYLFDRREKESELGDRPLQVGERSDYAGFRACVCQTLGISPEEKFVITTTSRKEITCDNFDETVKDGVTLYLLQSVNQLLLTATKERIDFLPHYDTLVKSGMYEYYASEGQNPLPFALAELIDNSLSATSRNIGVRRIQIKLLFDETQGKPAVAVIDNGRGMTSKQLNNWAVYRLSKFTRQGDFESDHSGYVRPVPVPRSLNSDISYFGVGGKQAVFFVGQSARMISKPADSQDVHELVLSKEDFEKKEKNKEAIYSGYIRNRKPSDSVHITNDDERFLHHLIIEEKEKDSFTAVVITGVQPEHIQYLKNYFHLWTRQLAHIYHYYIHGPKGNEIRTSKEVEPFNNIDIEISMFEKGKVPKIVNLREIQDDMQTLYVNTAADSFEFKAHVEGDGVVEGIIRYHPFLYDRETYPDDPCFPSKLKDEDDEDDCFILEKAARGKRPIFQCFWNGRLIPYTSVEDFDWCTPPKKRGLAPIECYNRISGALFTNDKFQVSTNKLTFMDLELKLKDKNTLFTRILNGQEQRMKIDREFALWLKDCHEKYDKQIKFTLFK [chain 1 E450Q] |
| ~0.012 | GHRTVYLFDRREKESELGDRPLQVGERSDYAGFRACVCQTLGISPEEKFVITTTSRKEITCDNFDETVKDGVTLYLLQSVNQLLLTATKERIDFLPHYDTLVKSGMYEYYASEGQNPLPFALAELIDNSLSATSRNIGVRRIQIKLLFDETQGKPAVAVIDNGRGMTSKQLNNWAVYRLSKFTRQGDFESDHSGYVRPVPVPRSLNSDISYFGVGGKQAVFFVGQSARMISKPADSQDVHELVLSKEDFEKKEKNKEAICSGYIRNRKPSDSVHITNDDERFLHHLIIEEKEKDSFTAVVITGVQPEHIQYLKNYFHLWTRQLAHIYHYYIHGPKGNEIRTSKEVEPFNNIDIEISMFEKGKVPKIVNLREIQDDMQTLYVNTAADSFEFKAHVEGDGVVEGIIRYHPFLYDRETYPDDPCFPSKLKDEDDEDDCFILEKAARGKRPIFECFWNGRLIPYTSVEDFDWCTPPKKRGLAPIECYNRISGALFTNDKFQVSTNKLTFMDLELKLKDKNTLFTRILNGQEQRMKIDREFALWLKDCHEKYDKQIKFTLFK [chain 1 Y260C] |
| ~0.093 | GHRTVYLFDRREKESELGDRPLQVGERSDYAGFRACVCQTLGISPEEKFVITTTSRKEITCDNFDETVKDGVTLYLLQSVNQLLLTATKERIDFLPHYDTLVKSGMYEYYASEGQHPLPFALAELIDNSLSATSRNIGVRRIQIKLLFDETQGKPAVAVIDNGRGMTSKQLNNWAVYRLSKFTRQGDFESDHSGYVRPVPVPRSLNSDISYFGVGGKQAVFFVGQSARMISKPADSQDVHELVLSKEDFEKKEKNKEAIYSGYIRNRKPSDSVHITNDDERFLHHLIIEEKEKDSFTAVVITGVQPEHIQYLKNYFHLWTRQLAHIYHYYIHGPKGNEIRTSKEVEPFNNIDIEISMFEKGKVPKIVNLREIQDDMQTLYVNTAADSFEFKAHVEGDGVVEGIIRYHPFLYDRETYPDDPCFPSKLKDEDDEDDCFILEKAARGKRPIFECFWNGRLIPYTSVEDFDWCTPPKKRGLAPIECYNRISGALFTNDKFQVSTNKLTFMDLELKLKDKNTLFTRILNGQEQRMKIDREFALWLKDCHEKYDKQIKFTLFK [chain 1 N116H] |
| ~0.11 | GHRTVYLFDRREKESELGDRPLQVGERSDYAGFRACVCQTLGISPEEKFVITTTSRKEITCDNFDETVKDGVTLYLLQSVNQLLLTATKERIDFLPHYDTLVKSGMYEYYASEGQNPLPFALAELIDNSLSATSRNIGVRRIQIKLLFDETQGKPAVAVIDNGRGMTSKQLNNWAVYRLSKFTRQGDFESDHSGYVRPVPVPRSLNSDISYFGVGGKQAVFFVGQSARMISKPADSQDVHELVLSKEDFEKKEKNKEAIYSGYIRNRKPSDSVHITNDDERFLHHLIIEEKEKDSFTAVVITGVQPEHIQYLKNYFHLWTRRLAHIYHYYIHGPKGNEIRTSKEVEPFNNIDIEISMFEKGKVPKIVNLREIQDDMQTLYVNTAADSFEFKAHVEGDGVVEGIIRYHPFLYDRETYPDDPCFPSKLKDEDDEDDCFILEKAARGKRPIFECFWNGRLIPYTSVEDFDWCTPPKKRGLAPIECYNRISGALFTNDKFQVSTNKLTFMDLELKLKDKNTLFTRILNGQEQRMKIDREFALWLKDCHEKYDKQIKFTLFK [chain 1 Q322R] |
